We go through 1 molecule from article PMC4538381, “Activation of Relaxin Family Receptor 1 from Different Mammalian Species by Relaxin Peptide and Small-Molecule Agonist ML290” (Frontiers in Endocrinology, 2015).

“Also recorded” adds a separate entry of the source.

One test relates to hRXFP1. The test is described as follows: Direct HTRF cAMP assay, hRXFP1. It is filed as cell-based, human. As to conditions: conditioned media from SQ10-transfected HEK293T cells, % of 10 μM Forskolin. On the procedure:
(§1) HEK293T cell transient transfections were performed using Lipofectamine 2000 transfection reagent (Life Technologies, Grand Island, NY, USA) according to the manufacturer’s instructions. Cells transiently expressing the RXFP1 receptors were used within 48 h of transfection. Each construct was tested at least three times. For cell-conditioned media stimulation, HEK293T cells were transfected with the rabbit RLN construct (SQ10) or an empty pCR3.1 vector, and cells were cultured for 24 h. The media was used to stimulate HEK293T cells transfected with the RXFP1 receptors.
(§2) Direct measurement of cAMP production was performed using the HTRF cAMP HiRange kit (CisBio, Bedford, MA, USA). HEK293T cells transiently transfected with different RXFP1 receptors were stimulated with various concentrations of RLN peptides or ML290 for 60 min at 37°C, 5% CO2, after which, two HTRF detection reagents (diluted according to assay kit directions in HTRF lysis buffer) were added. The plates were incubated for 60 min at room temperature, and the signal was read on a FLUOstar Omega (BMG Labtech, Cary, NC, USA) plate reader. cAMP levels were calculated according to the manufacturer’s instructions against a standard curve. Statistical processing of the data was performed using GraphPad Prism software.
For orientation: In TR-FRET formats the signal depends on donor and acceptor labels being close together.

The test system of a further test is G-RXFP1. Briefly: Direct HTRF cAMP assay, guinea pig G-RXFP1. It is filed as cell-based, guinea pig (Cavia porcellus). As to conditions: conditioned media from SQ10-transfected HEK293T cells, % of 10 μM Forskolin. On the procedure: The human, mouse, macaque, and pig RXFP1 cDNA constructs in baculovirus BacMam mammalian expression vector (Invitrogen, Carlsbad, CA, USA) were synthesized at the Eukaryotic Expression Group-Protein Expression laboratory (NCI, Frederick, MD, USA). The PCR primers for RT-PCR were designed to cover the full-length sequence of the open reading frame (ORF). PCR amplifications were performed with PfuUltra High-Fidelity DNA polymerase (Agilent Technologies, Santa Clara, CA, USA). Guinea pig RXFP1 (G-RXFP1) was amplified from guinea pig ovarian cDNA (Zyagen, San Diego, CA, USA). Rabbit RXFP1 (R1-RXFP1 and R2-RXFP1) cDNAs were amplified from rabbit uterus cDNA (Zyagen). All cloning was performed using the In-Fusion® HD Cloning Kit (Clontech Laboratories, Mountain View, CA, USA). Rabbit and guinea pig RXFP1s were cloned into pCR3.1 mammalian expression vector (Invitrogen). […]
Direct measurement of cAMP production was performed using the HTRF cAMP HiRange kit (CisBio, Bedford, MA, USA). […] The plates were incubated for 60 min at room temperature, and the signal was read on a FLUOstar Omega (BMG Labtech, Cary, NC, USA) plate reader. cAMP levels were calculated according to the manufacturer’s instructions against a standard curve. […]

In another test the test system is R1-RXFP1 and R2-RXFP1. The test is described as follows: Direct HTRF cAMP assay, rabbit R1-RXFP1 and R2-RXFP1. The test is classed as cell-based, European rabbit (Oryctolagus cuniculus). As to conditions: HTRF. On the procedure:
The human, mouse, macaque, and pig RXFP1 cDNA constructs in baculovirus BacMam mammalian expression vector (Invitrogen, Carlsbad, CA, USA) were synthesized at the Eukaryotic Expression Group-Protein Expression laboratory (NCI, Frederick, MD, USA). The PCR primers for RT-PCR were designed to cover the full-length sequence of the open reading frame (ORF). PCR amplifications were performed with PfuUltra High-Fidelity DNA polymerase (Agilent Technologies, Santa Clara, CA, USA). Guinea pig RXFP1 (G-RXFP1) was amplified from guinea pig ovarian cDNA (Zyagen, San Diego, CA, USA). Rabbit RXFP1 (R1-RXFP1 and R2-RXFP1) cDNAs were amplified from rabbit uterus cDNA (Zyagen). All cloning was performed using the In-Fusion® HD Cloning Kit (Clontech Laboratories, Mountain View, CA, USA). Rabbit and guinea pig RXFP1s were cloned into pCR3.1 mammalian expression vector (Invitrogen). In order to study RXFP1 surface expression, rabbit cDNAs were cloned into pcDNA3.1™/Zeo+ mammalian expression vector (Invitrogen), which contained an N-terminal FLAG-tag and a bovine prolactin signal sequence (3). […] To make chimeric clones, the human, guinea pig, and rabbit plasmid were used as templates to produce PCR amplicons, which were then used for overlapping PCR and subsequent cloning with the In-Fusion kit. The chimeric guinea pig/human GH-RXFP1 construct contains guinea pig RXFP1 cDNA (G-RXFP1, 1–1499 bp) encoding the ectodomain, TM1, TM2, and part of TM3 (amino acids 1–499 of G-RXFP1), and human RXFP1 (hRXFP1, 1509–2274 bp) encoding TM3 to the C-terminal tail of the receptor (amino acids 503–757 of hRXFP1) (Figure 1A). The recombinant chimeric human–rabbit HR-RXFP1 was made with the 5′-part of the hRXFP1 sequence (1–972 bp, LDLa-LRR9, 1–324 aa), with the remainder being the rabbit RXFP1 sequence (973–2277 bp, LRR9-C-terminal tail, 325–759 aa) (Figure 1A). The recombinant chimeric rabbit–human R1H-RXFP1 or R2H-RXFP1 contains the N-terminal rabbit RXFP1 sequence (1–972 bp for R1-RXFP1 or 975 bp for R2-RXFP1), with the remaining sequence being hRXFP1 (973–2274) (Figure 1A). R1- and R2-RXFP1 denote two variants of rabbit RXFP1 cDNA. All numbers correspond to the full-length cDNAs with the first nucleotide of the ORF.
as §1, §2

B1: SQ10: rabbit RLN expressed from SQ10 cDNA in HEK293T cells, used as conditioned medium (protein)
chain: RVTYEWMMENVKICRNDFVRTAIEVCGHVHLERESPSPENPFLSSGPAAETVPSSIKKDAENANTMLESIPNLPQELTATLFEKQPSKLYLQYLPTLKKSNVSFEEFKKIIQNIQRGVQGSSASESNTFSRKKRQFSESLPEECCKYGCPRYYLLMYC
With B1, the “cAMP response to SQ10 conditioned medium” value in the test on hRXFP1 was “responded to SQ10 treatment with cAMP production; also recorded: activated human and guinea pig receptors and thus was fully functional”; with G-RXFP1, “responded to SQ10 treatment with cAMP production; also recorded: activated human and guinea pig receptors and thus was fully functional”; in the test on R1-RXFP1 and R2-RXFP1 (R1- or R2-RXFP1, conditioned media from SQ10-transfected HEK293T cells, % of 10 μM Forskolin), “No response was recorded; also recorded: Neither of the two rabbit RXFP1 variants responded”. Besides, the “statistical significance of response versus hRXFP1 or G-RXFP1” value with R1-RXFP1 and R2-RXFP1 (R1-RXFP1, SQ10 conditioned media) is “statistically significant (p < 0.0001) compared to hRXFP1 or G-RXFP1”.
